Test results from patent US20230348578A1, “CONFORMATION-SPECIFIC ANTIBODIES THAT BIND TAU PROTEIN AND USES THEREOF” (Beth Israel Deaconess Medical Center, Inc., priority 2020, published 2023).

Molecular target: P-tau peptide (wild-type P-tau peptide and its pure cis or cis-locked, and pure trans counterparts)
Test: Biacore (SPR) with P-tau peptide

Binder | Kd [nM] | Relative KD
Cis-mAb HT3 (humanized) (antibody, V domains shown) VH: QVQLVQSGAEVKKPGASVKVSCKASGYTFTSYWIHWVRQRPGQGLEWIGVIDPSDSYTRYNQKFKGRVTLTVDTSASTAYMELSSLRSEDTAVYYCTTWEVDYWGQGTLVTVSS VL: DVVMTQSPLSLPVTLGQPASISCRSSQSLVHSDGNTYLHWYLQKPGQSPQLLIYKVSNRFSGVPDRFSGSGSGTDFTLKISRVEAEDVGVYFCSQSTHVPWTFGGGTKVEIK | 3.51 | 2.79 fold of HT13
Cis-mAb HT8 (humanized) (antibody, V domains shown) VH: QVQLVQSGAEVKKPGASVKVSCKASGYTFTSYWIHWVRQRPGQGLEWIGVIDPSDSYTRYNQKFKGRVTITRDTSASTAYMELSSLRSEDTAVYYCTTWEVDYWGQGTLVTVSS VL: DVVMTQSPLSLPVTLGQPASISCRSSQSLVHSDGNTYLHWYLQKPGQSPQLLIYKVSNRDSGVPDRFSGSGSGTDFTLKISRVEAEDVGVYFCSQSTHVPWTFGGGTKVEIK | 7.68 | 6.11 fold of HT13
Cis-mAb HT4 (humanized) (antibody, V domains shown) VH: QVQLVQSGAEVKKPGASVKVSCKASGYTFTSYWIHWVRQRPGQGLEWIGVIDPSDSYTRYNQKFKGRVTITRDTSASTAYMELSSLRSEDTAVYYCTTWEVDYWGQGTLVTVSS VL: DVVMTQSPLSLPVTLGQPASISCRSSQSLVHSDGNTYLHWYLQKPGQSPQLLIYKVSNRFSGVPDRFSGSGSGTDFTLKISRVEAEDVGVYFCSQSTHVPWTFGGGTKVEIK | 2.42 | 1.92 fold of HT13
Cis-mAb HT1 (humanized) (antibody, V domains shown) VH: QVQLVQSGAELKKPGASVKMSCKASGYTFTSYWIHWVKQRPGQGLEWIGVIDPSDSYTRYNQKFKGRATLTVDTSASTAYMQLSSLTSEDSAVYYCTTWEVDYWGQGTTVTVSS VL: DVVMTQSPLSLPVTLGQPASISCRSSQSLVHSDGNTYLHWYLQKPGQSPQLLIYKVSNRFSGVPDRFSGSGSGTDFTLKISRVEAEDVGVYFCSQSTHVPWTFGGGTKVEIK | 1.83 | 1.45 fold of HT13
Cis-mAb HT5 (humanized) (antibody, V domains shown) VH: QVQLVQSGAELKKPGASVKMSCKASGYTFTSYWIHWVKQRPGQGLEWIGVIDPSDSYTRYNQKFKGRATLTVDTSASTAYMQLSSLTSEDSAVYYCTTWEVDYWGQGTTVTVSS VL: DVVMTQSPLSLPVTLGQPASISCRSSQSLVHSDGNTYLHWYLQKPGQSPQLLIYKVSNRDSGVPDRFSGSGSGTDFTLKISRVEAEDVGVYFCSQSTHVPWTFGGGTKVEIK | 6.91 | 5.48 fold of HT13
Cis-mAb HT7 (humanized) (antibody, V domains shown) VH: QVQLVQSGAEVKKPGASVKVSCKASGYTFTSYWIHWVRQRPGQGLEWIGVIDPSDSYTRYNQKFKGRVTLTVDTSASTAYMELSSLRSEDTAVYYCTTWEVDYWGQGTLVTVSS VL: DVVMTQSPLSLPVTLGQPASISCRSSQSLVHSDGNTYLHWYLQKPGQSPQLLIYKVSNRDSGVPDRFSGSGSGTDFTLKISRVEAEDVGVYFCSQSTHVPWTFGGGTKVEIK | 10.8 | 8.57 fold of HT13
Cis-mAb HT9 (humanized) (antibody, V domains shown) VH: QVQLVQSGAELKKPGASVKMSCKASGYTFTSYWIHWVKQRPGQGLEWIGVIDPSDSYTRYNQKFKGRATLTVDTSASTAYMQLSSLTSEDSAVYYCTTWEVDYWGQGTTVTVSS VL: DVVMTQSPLSLPVTLGQPASISCRSSQSLVHSDGNTYLHWYLQKPGQSPQLLIYKVSNRFSGVPDRFSGSGSGTDFTLKISRVEAEDVGVYYCSQSTHVPWTFGGGTKVEIK | 1.89 | 1.5 fold of HT13
Cis-mAb HT2 (humanized) (antibody, V domains shown) VH: QVQLVQSGAEVKKPGASVKMSCKASGYTFTSYWIHWVKQRPGQGLEWIGVIDPSDSYTRYNQKFKGRATLTVDTSASTAYMELSSLRSEDTAVYYCTTWEVDYWGQGTLVTVSS VL: DVVMTQSPLSLPVTLGQPASISCRSSQSLVHSDGNTYLHWYLQKPGQSPQLLIYKVSNRFSGVPDRFSGSGSGTDFTLKISRVEAEDVGVYFCSQSTHVPWTFGGGTKVEIK | 1.62 | 1.29 fold of HT13
Cis-mAb HT6 (humanized) (antibody, V domains shown) VH: QVQLVQSGAEVKKPGASVKMSCKASGYTFTSYWIHWVKQRPGQGLEWIGVIDPSDSYTRYNQKFKGRATLTVDTSASTAYMELSSLRSEDTAVYYCTTWEVDYWGQGTLVTVSS VL: DVVMTQSPLSLPVTLGQPASISCRSSQSLVHSDGNTYLHWYLQKPGQSPQLLIYKVSNRDSGVPDRFSGSGSGTDFTLKISRVEAEDVGVYFCSQSTHVPWTFGGGTKVEIK | 6.48 | 5.14 fold of HT13

Further lines, results first:

Kd [nM] | Relative KD | Binder
1.91 | 1.52 fold of HT13 | Cis-mAb HT18 (humanized) (antibody, V domains shown) VH: QVQLVQSGAEVKKPGSSVKVSCKASGYTFTSYWIHWVRQAPGQGLEWMGVIDPSDSYTRYNQKFKGRVTITRDTSMSTAYTELSSLRSEDTAVYYCTTWEVDYWGQGTLVTVSS VL: DIQMTQSPSTLSASVGDRVTITCRSSQSLVHSDGNTYLHWYQQKPGKAPKLLIYKVSNRFSGVPSRFSGSGSGTEFTLTISSLQPDDFATYYCSQSTHVPWTFGQGTKLEIK
1.26 | 1 fold of HT13 | Cis-mAb HT13 (mouse-human chimera, control) (antibody, V domains shown) VH: QVQLQQPGAELVKPGASVKMSCKASGYTFTSYWIHWVKQRPGQGLEWIGVIDPSDSYTRYNQKFKGKATLTVDTSSSTAYMQLSSLTSEDSAVYYCTTWEVDYWGQGTTLTVSS VL: DVVMTQTPLSLPVSLGDQASISCRSSQSLVHSDGNTYLHWYLQKPGQSPKLLIYKVSNRFSGVPDRFSGSGSGTDFTLKISRLEAEDLGVYFCSQSTHVPWTFGGGTKLEIK
4940 | 3920 fold of HT13 | Cis-mAb HT17 (humanized) (antibody, V domains shown) VH: QVQLVQSGAEVKKPGASVKVSCKASGYTFTSYWIHWVRQRPGQGLEWIGVIDPSDSYTRYNQKFKGRVTITRDTSASTAYMELSSLRSEDTAVYYCTTWEVDYWGQGTLVTVSS VL: DVVMTQSPLSLPVTLGQPASISCRSSQSLVHSDGNTYLNWYLQKPGQSPQLLIYKVSNRFSGVPDRFSGSGSGTDFTLKISRVEAEDVGVYFCSQSTHVPWTFGGGTKVEIK
1.77 | 1.4 fold of HT13 | Cis-mAb HT10 (humanized) (antibody, V domains shown) VH: QVQLVQSGAEVKKPGASVKMSCKASGYTFTSYWIHWVKQRPGQGLEWIGVIDPSDSYTRYNQKFKGRATLTVDTSASTAYMELSSLRSEDTAVYYCTTWEVDYWGQGTLVTVSS VL: DVVMTQSPLSLPVTLGQPASISCRSSQSLVHSDGNTYLHWYLQKPGQSPQLLIYKVSNRFSGVPDRFSGSGSGTDFTLKISRVEAEDVGVYYCSQSTHVPWTFGGGTKVEIK
3.99 | 3.17 fold of HT13 | Cis-mAb HT11 (humanized) (antibody, V domains shown) VH: QVQLVQSGAEVKKPGASVKVSCKASGYTFTSYWIHWVRQRPGQGLEWIGVIDPSDSYTRYNQKFKGRVTLTVDTSASTAYMELSSLRSEDTAVYYCTTWEVDYWGQGTLVTVSS VL: DVVMTQSPLSLPVTLGQPASISCRSSQSLVHSDGNTYLHWYLQKPGQSPQLLIYKVSNRFSGVPDRFSGSGSGTDFTLKISRVEAEDVGVYYCSQSTHVPWTFGGGTKVEIK
3.55 | 2.82 fold of HT13 | Cis-mAb HT12 (humanized) (antibody, V domains shown) VH: QVQLVQSGAEVKKPGASVKVSCKASGYTFTSYWIHWVRQRPGQGLEWIGVIDPSDSYTRYNQKFKGRVTITRDTSASTAYMELSSLRSEDTAVYYCTTWEVDYWGQGTLVTVSS VL: DVVMTQSPLSLPVTLGQPASISCRSSQSLVHSDGNTYLHWYLQKPGQSPQLLIYKVSNRFSGVPDRFSGSGSGTDFTLKISRVEAEDVGVYYCSQSTHVPWTFGGGTKVEIK
33.4 | 26.5 fold of HT13 | Cis-mAb HT15 (humanized) (antibody, V domains shown) VH: QVQLVQSGAEVKKPGASVKMSCKASGYTFTSYWIHWVKQRPGQGLEWIGVIDPSDSYTRYNQKFKGRATLTVDTSASTAYMELSSLRSEDTAVYYCTTWEVDYWGQGTLVTVSS VL: DVVMTQSPLSLPVTLGQPASISCRSSQSLVHSDGNTYLNWYLQKPGQSPQLLIYKVSNRFSGVPDRFSGSGSGTDFTLKISRVEAEDVGVYFCSQSTHVPWTFGGGTKVEIK
30.2 | 24 fold of HT13 | Cis-mAb HT14 (humanized) (antibody, V domains shown) VH: QVQLVQSGAELKKPGASVKMSCKASGYTFTSYWIHWVKQRPGQGLEWIGVIDPSDSYTRYNQKFKGRATLTVDTSASTAYMQLSSLTSEDSAVYYCTTWEVDYWGQGTTVTVSS VL: DVVMTQSPLSLPVTLGQPASISCRSSQSLVHSDGNTYLNWYLQKPGQSPQLLIYKVSNRFSGVPDRFSGSGSGTDFTLKISRVEAEDVGVYFCSQSTHVPWTFGGGTKVEIK
3.26 | 2.59 fold of HT13 | Cis-mAb HT16 (humanized) (antibody, V domains shown) VH: QVQLVQSGAEVKKPGASVKVSCKASGYTFTSYWIHWVRQRPGQGLEWIGVIDPSDSYTRYNQKFKGRVTLTVDTSASTAYMELSSLRSEDTAVYYCTTWEVDYWGQGTLVTVSS VL: DVVMTQSPLSLPVTLGQPASISCRSSQSLVHSDGNTYLNWYLQKPGQSPQLLIYKVSNRFSGVPDRFSGSGSGTDFTLKISRVEAEDVGVYFCSQSTHVPWTFGGGTKVEIK
